# Measured values published in publication PMC5642495, “Characterization of a novel androgen receptor (AR) coregulator RIPK1 and related chemicals that suppress AR-mediated prostate cancer growth via peptide and chemical screening” (Oncotarget, 2017).
# Positions count from the first letter of the chain named. Ends that are not written are not given here.
# What was measured:
# wt-AR = biological target: T1, wt-AR (Homo sapiens, UniProt P10275); assay: mammalian two-hybrid (MM2H) assay, peptide interaction with wt-AR; assay type: cell-based; details: PC-3 cells, Gal-4 = 1; for wt-AR DHT, peptide-AR interaction in MM2H assay: DHT = 10 nM
# T1 construct: expressed in transfected cells; host or cells: PC-3
# T1 sequence (P10275 1-920): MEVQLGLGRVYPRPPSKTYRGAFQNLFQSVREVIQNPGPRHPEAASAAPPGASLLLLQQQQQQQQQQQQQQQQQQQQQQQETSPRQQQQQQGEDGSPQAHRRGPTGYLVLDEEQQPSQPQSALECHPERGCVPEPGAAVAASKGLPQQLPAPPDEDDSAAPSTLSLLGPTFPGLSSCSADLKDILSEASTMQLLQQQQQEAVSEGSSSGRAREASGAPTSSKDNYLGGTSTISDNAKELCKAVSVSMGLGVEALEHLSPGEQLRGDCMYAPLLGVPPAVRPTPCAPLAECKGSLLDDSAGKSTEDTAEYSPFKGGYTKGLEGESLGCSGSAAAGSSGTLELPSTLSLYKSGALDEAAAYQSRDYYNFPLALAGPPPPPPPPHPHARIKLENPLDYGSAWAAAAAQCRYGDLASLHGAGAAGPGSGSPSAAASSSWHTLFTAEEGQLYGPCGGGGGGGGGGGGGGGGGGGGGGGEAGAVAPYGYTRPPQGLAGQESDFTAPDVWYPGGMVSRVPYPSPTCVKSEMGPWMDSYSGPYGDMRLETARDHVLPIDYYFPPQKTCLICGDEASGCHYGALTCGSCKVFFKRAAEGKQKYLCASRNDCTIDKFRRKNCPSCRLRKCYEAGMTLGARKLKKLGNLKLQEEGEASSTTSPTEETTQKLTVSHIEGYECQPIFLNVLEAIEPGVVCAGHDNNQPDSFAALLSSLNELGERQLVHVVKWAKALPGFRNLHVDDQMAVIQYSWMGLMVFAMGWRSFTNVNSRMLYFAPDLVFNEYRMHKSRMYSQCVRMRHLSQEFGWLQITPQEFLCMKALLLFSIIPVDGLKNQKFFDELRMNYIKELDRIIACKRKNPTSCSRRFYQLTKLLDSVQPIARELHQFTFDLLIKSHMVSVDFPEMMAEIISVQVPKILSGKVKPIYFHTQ
# Source text: (§1) Using the phage display technique, we observed enrichment of FxxFY motif-containing peptides in CDX-W741L AR LBD screening. Peptide-AR interactions were further validated with the mammalian two-hybrid assay. […] The majority of these peptides additionally interacted with W741L-AR in the presence of bicalutamide. Protein database searches led to the identification of receptor-interacting protein kinase-1 (RIPK1) as a FxxFY motif-containing protein (^285FRPFY^289). RIPK1 is a kinase that plays a crucial role in inflammation and cell death. We hypothesized that RIPK1 is an AR-interacting candidate protein and the FxxFY motif is involved in mediating interactions with AR. To examine this theory, we tested the short FxxFY-containing peptide in a mammalian two-hybrid assay. […] In interacting domain mapping, the FxxFY motif of RIPK1 influenced binding to AR in the GST pull-down assay, mediating AR interactions predominantly through DBD-LBD, as depicted in Figure 1B. […] RIPK1 contains an amino-terminal kinase domain, an intermediate domain and a carboxy-terminal death domain [17]. […] We further examined tissue expression of RIPK1 in the prostate gland via immunohistochemical staining. As shown in Figure 1E and 1F, RIPK1 was enriched in benign prostate hyperplasia and non-tumor areas, but not the tumor area. In view of the collective data, we propose that RIPK1 is a bona fide AR coregulator.
# (§2) The assay procedures were performed as described previously. The PC-3 cell line was used for the mammalian two-hybrid and reporter gene assays.
# W741L-AR = biological target: T2, W741L-AR (Homo sapiens, UniProt P10275, W742L); assay: mammalian two-hybrid (MM2H) assay, peptide interaction with W741L-AR; assay type: cell-based; details: PC-3 cells, Gal-4 = 1; for W741L-AR CDX, peptide-AR interaction in MM2H assay: CDX = 10 µM
# T2 construct: expressed in transfected cells; host or cells: PC-3
# T2 sequence (P10275 1-920 W742L): T1 sequence (P10275 1-920) with W742L
# Source text: as §1, §2
Substance,"wt-AR DHT, peptide-AR interaction in MM2H assay (wt-AR)","wt-AR Ethanol, peptide-AR interaction in MM2H assay (wt-AR)","W741L-AR CDX, peptide-AR interaction in MM2H assay (W741L-AR)","W741L-AR Ethanol, peptide-AR interaction in MM2H assay (W741L-AR)"
"#3-18: positive control peptide NTNA-FSRLF-YPS (NTNAFSRLFYPS; also: fused to Gal4 DNA-binding domain, end not given here) [reference compound]",590,10,128,9
"C1-FY: phage display screened peptide SYT-FNQFY-YSTA (SYTFNQFYYSTA; also: fused to Gal4 DNA-binding domain, end not given here)",680,19,511,8
"C4-FY: phage display screened peptide SPL-FSSFY-HART (SPLFSSFYHART; also: fused to Gal4 DNA-binding domain, end not given here)",340,4,114,1
"C8-FY: phage display screened peptide GD-FKSFY-LATTW (GDFKSFYLATTW; also: fused to Gal4 DNA-binding domain, end not given here)",484,17,86,2
"C315-FY: phage display screened peptide APSLNR-FATFY-H (APSLNRFATFYH; also: fused to Gal4 DNA-binding domain, end not given here)",6,1,2,1
"C411-FY: phage display screened peptide NDTPVK-FAHFY-H (NDTPVKFAHFYH; also: fused to Gal4 DNA-binding domain, end not given here)",3,7,3,2
"C412-FY: phage display screened peptide APSDTY-FQRFY-R (APSDTYFQRFYR; also: fused to Gal4 DNA-binding domain, end not given here)",6,12,2,1
"C414-FY: phage display screened peptide NPSSM-FEKFY-LR (NPSSMFEKFYLR; also: fused to Gal4 DNA-binding domain, end not given here)","2,653",10,532,2
"CA9-FY: phage display screened peptide SL-FTSFY-TGSGS (SLFTSFYTGSGS; also: fused to Gal4 DNA-binding domain, end not given here)","1,517",20,190,5
"CA-10-FY: phage display screened peptide EHSM-FHSFY-VQG (EHSMFHSFYVQG; also: fused to Gal4 DNA-binding domain, end not given here)",277,12,14,4
CON-1: negative control peptide MYKP-HNHHQ-TSS (MYKPHNHHQTSS; also: fused to Gal4 DNA-binding domain (not in chain)) [reference compound],1,1,1,1
"RIP-p: short peptide of novel AR coregulator candidate RIPK1, GIEEK-FRPFY-LSQLE (GIEEKFRPFYLSQLE; also: fused to Gal4 DNA-binding domain (not in chain))",159,2,554,12
